Consider 2 proteins from FireProtDB (doi:10.1021/bi061295h).

Where “and” joins values, the source holds several entries; their conditions need not be identical. Equal values may be shown once.

The conditions of the data set: 25 °C, reversible: Yes, whole UniProt chain shown.
[1] abbreviates: Rattus norvegicus, pH 7.5, Urea, Fluorescence, Sodium phosphate 20 mM, KCl 100 mM.
Setting [2] is: Bos taurus, pH 7.4, GdnHCl, CD, Tris 20 mM.

B1: Fatty acid-binding protein, intestinal wild type, P02693 (protein)
chain: MAFDGTWKVDRNENYEKFMEKMGINVVKRKLGAHDNLKLTITQEGNKFTVKESSNFRNIDVVFELGVDFAYSLADGTELTGTWTMEGNKLVGKFKRVDNGKELIAVREISGNELIQTYTYEGVEAKRIFKKE
Regarding B1, under setting [1], the denaturant m value is 1.7 kcal/mol/M and the unfolding free energy came to 9.2 kcal/mol. The denaturant m value (Rattus norvegicus, pH 7.5, Urea, SUPREX, Sodium phosphate 20 mM, KCl 100 mM) is 1 kcal/mol/M and 2.7 kcal/mol/M and 0.9 kcal/mol/M.

B2: Alpha-lactalbumin wild type, P00711 (protein)
chain: MMSFVSLLLVGILFHATQAEQLTKCEVFRELKDLKGYGGVSLPEWVCTTFHTSGYDTQAIVQNNDSTEYGLFQINNKIWCKDDQNPHSSNICNISCDKFLDDDLTDDIMCVKKILDKVGINYWLAHKALCSEKLDQWLCEKL
In the case of B2, under setting [2], the denaturant m value is 1.4 kcal/mol/M and the unfolding free energy stood at 3 kcal/mol. In addition, the denaturant m value (Bos taurus, pH 7.4, GdnHCl, SUPREX, Sodium phosphate 20 mM) was determined as 1.6 kcal/mol/M.
